These results are taken from PMC9826845, “Characterization of the Escherichia coli XPD/Rad3 iron-sulfur helicase YoaA in complex with the DNA polymerase III clamp loader subunit chi (χ)”.

The data set deals with YoaA (6xHis);chi (DNA polymerase III clamp loader subunit) (Escherichia coli;Escherichia coli, UniProt P76257;P28905 1-636;1-147, |). The data set is described as follows: fluorescein quenching titration; 0.5 mM ATPgS; rough estimate, no saturation; assay buffer B (composition not in the material) with 0.5 mM ATPgS, 50 nM DNA, YoaA-chi 0.1 nM-2 uM (Kd titration) or 1 uM; temperature and pH not given. Conditions: protein: recombinant;recombinant, 6xHis (His-YoaA);, copies: 1;1, label: fluorescein, 20 bp, other end blunt.
Sequence of YoaA (6xHis);chi (DNA polymerase III clamp loader subunit) (P76257 whole entry, chain 1 of 2): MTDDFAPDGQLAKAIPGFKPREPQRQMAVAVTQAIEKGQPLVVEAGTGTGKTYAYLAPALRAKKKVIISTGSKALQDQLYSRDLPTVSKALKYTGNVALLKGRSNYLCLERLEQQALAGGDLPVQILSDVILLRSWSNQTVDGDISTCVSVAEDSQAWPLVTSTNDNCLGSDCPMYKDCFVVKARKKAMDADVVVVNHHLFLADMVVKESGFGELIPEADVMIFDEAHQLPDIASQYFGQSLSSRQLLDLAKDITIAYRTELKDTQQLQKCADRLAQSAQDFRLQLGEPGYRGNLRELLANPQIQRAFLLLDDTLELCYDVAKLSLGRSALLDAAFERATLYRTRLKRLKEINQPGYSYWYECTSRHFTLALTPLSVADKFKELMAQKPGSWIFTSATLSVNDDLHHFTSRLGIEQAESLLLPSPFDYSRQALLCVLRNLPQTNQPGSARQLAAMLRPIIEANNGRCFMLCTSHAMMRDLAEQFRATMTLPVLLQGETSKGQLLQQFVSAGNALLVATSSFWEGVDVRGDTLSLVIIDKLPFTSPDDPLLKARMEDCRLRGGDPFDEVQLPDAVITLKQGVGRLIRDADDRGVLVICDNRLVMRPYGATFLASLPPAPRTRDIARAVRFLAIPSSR
Sequence of YoaA (6xHis);chi (DNA polymerase III clamp loader subunit) (P28905 whole entry, chain 2 of 2): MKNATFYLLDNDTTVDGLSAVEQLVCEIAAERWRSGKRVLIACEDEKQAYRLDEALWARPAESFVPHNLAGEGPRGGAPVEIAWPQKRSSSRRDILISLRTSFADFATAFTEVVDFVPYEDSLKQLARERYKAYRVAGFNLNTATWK

B1: B3 forked duplex (S4 + S5) (dsDNA)
DNA 1: TTTTTTTTTTTTTTTTTTTTTTTTTTTTTTTTTTTATAAAAGGGACATTCTGGCC
DNA 2: GGCCAGAATGTCCCTTTTATTACTGGTCGT
modifications: fluorescein at T15 of strand 2 (printed F, written as T)
Broadly, the Kd is the equilibrium constant for the complex coming apart. For the molecule B1, the Kd (fork: 35 nt 5' overhang on strand 1, 10 nt 3' overhang on strand 2) was ~0.328 µM.

B2: B2 5' overhang duplex (S18 + S5) (dsDNA)
DNA 1: TTTTTTTTTTTTTTTTTTTTTTTTTTTTTTTTTTTATAAAAGGGACATTCTGGCC
DNA 2: GGCCAGAATGTCCCTTTTAT
modifications: fluorescein at T15 of strand 2 (printed F, written as T), 6 nt from junction
In the case of B2, the Kd (35 nt 5' overhang on strand 1) was ~0.35 µM.
